This is an account of results in patent US20250215108A1.

For assay [1], the target named is recombinant hSIRPb-His (Antibodies-online, reference ABIN3077231) (human) (UniProt Q5TFQ8). Nature of the assay: BLI (Blitz): SIRPb-His on Ni-NTA biosensor, antibody at 20 µg/ml; 120 s association, 120 s dissociation.
The target in assay [2] is SIRPγ on peripheral human CD3+ T cells (human) (UniProt Q9P1W8). Nature of the assay: flow cytometry on human CD3+ T cells, antibody at 10 micrograms/ml. (In general: In flow cytometry, cells or beads pass a laser one at a time.)
SIRPγ on peripheral human CD3+ T cells (human), sequence (Q9P1W8 29-387): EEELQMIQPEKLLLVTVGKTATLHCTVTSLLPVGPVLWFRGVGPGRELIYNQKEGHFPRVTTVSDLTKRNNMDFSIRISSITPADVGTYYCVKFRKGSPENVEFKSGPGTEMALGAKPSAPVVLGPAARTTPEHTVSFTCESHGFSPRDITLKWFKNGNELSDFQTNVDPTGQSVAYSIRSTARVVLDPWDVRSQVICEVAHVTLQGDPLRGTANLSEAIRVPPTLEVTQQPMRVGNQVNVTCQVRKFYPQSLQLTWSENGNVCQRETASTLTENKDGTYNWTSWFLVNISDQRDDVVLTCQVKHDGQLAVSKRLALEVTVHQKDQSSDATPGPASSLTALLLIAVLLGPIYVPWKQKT
In assay [3] the target is SIRPa on human monocytes (human) (UniProt P78324). Nature of the assay: flow cytometry on human monocytes v1/v1 (Fc receptors blocked), PE anti-human Fc; readout % stained monocytes.
In assay [4] the target is recombinant hSIRPa-His (Sino Biologicals, reference 11612-H08H) (human) (UniProt P78324). Nature of the assay: ELISA, immobilized hSIRPa-His, anti-human IgG detection. For orientation: An ELISA detects its analyte on a solid surface through an enzyme-linked reagent.
The target is the same in assay [5]. Nature of the assay: SPR (Biacore 3000); SIRPa-His immobilised on a CM5 chip (500 RU), antibody injected; 3 min association, 10 min dissociation.
For assay [6], the target named is SIRPγ on peripheral human CD3+ T cells (human) (UniProt Q9P1W8). Nature of the assay: flow cytometry on peripheral human CD3+ T cells, 10 µg/ml; Exp 1 HV2.
Assay [7] shares this target. Nature of the assay: flow cytometry on peripheral human CD3+ T cells, 10 µg/ml; Exp 1 HV1.
The target in assay [8] is SIRPa on human monocytes (human) (UniProt P78324). Nature of the assay: flow cytometry on human monocytes v1/v1 (Fc receptors blocked), PE anti-human Fc; readout MFI.
The target in assay [9] is recombinant hSIRPg-His (Sino Biologicals, reference 11828-H08H) (human) (UniProt Q9P1W8). Nature of the assay: BLI (Blitz): SIRPg-His on Ni-NTA biosensor, antibody at 10 µg/ml or 20 µg/ml (Example 9); 120 s association, 120 s dissociation.
recombinant hSIRPg-His (Sino Biologicals, reference 11828-H08H) (human), sequence (Q9P1W8 29-360): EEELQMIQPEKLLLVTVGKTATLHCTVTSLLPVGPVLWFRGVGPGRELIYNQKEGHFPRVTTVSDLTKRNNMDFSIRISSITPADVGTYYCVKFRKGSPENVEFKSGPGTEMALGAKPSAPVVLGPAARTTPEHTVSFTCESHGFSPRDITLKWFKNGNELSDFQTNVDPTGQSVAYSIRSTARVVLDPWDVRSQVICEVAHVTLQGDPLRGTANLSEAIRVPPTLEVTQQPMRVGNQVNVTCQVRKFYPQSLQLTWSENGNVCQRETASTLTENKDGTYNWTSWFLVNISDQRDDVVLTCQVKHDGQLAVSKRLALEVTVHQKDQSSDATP

recombinant hSIRPb-His (Antibodies-online, reference ABIN3077231) (human), sequence (Q5TFQ8 30-371): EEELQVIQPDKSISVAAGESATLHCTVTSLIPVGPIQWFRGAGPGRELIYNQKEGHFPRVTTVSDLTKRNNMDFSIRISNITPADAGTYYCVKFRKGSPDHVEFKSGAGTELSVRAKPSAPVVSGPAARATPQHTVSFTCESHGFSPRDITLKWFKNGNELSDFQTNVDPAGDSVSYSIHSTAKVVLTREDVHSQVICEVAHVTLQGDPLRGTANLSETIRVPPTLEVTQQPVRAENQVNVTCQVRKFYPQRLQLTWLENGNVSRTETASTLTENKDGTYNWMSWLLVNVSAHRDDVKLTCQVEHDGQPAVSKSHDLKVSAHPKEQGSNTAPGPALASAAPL

B1: anti-human SIRPa antibody Kwar23 (Creative Biolabs) (antibody, from a related filing, V domains shown)
VH: EVQLQQSGAELVKPGASVKLSCTASGFNIKDYYIHWVQQRTEQGLEWIGRIDPEDGETKYAPKFQDKATITADTSSNTAYLHLSSLTSEDTAVYYCARWGAYWGQGTLVTVSS
VL: QIVLTQSPAIMSASPGEKVTLTCSASSSVSSSYLYWYQQKPGSSPKLWIYSTSNLASGVPARFSGSGSGTSYSLTISSMEAEDAASYFCHQWSSYPRTFGAGTKLELK
Usually Kd stands for a measure of binding affinity in units of concentration. In general, EC50 refers to the concentration needed to bring the measured effect to its halfway point. In the case of B1, the equilibrium dissociation constant (Kd) turned out to be 2.77 nM in assay [1], 0.367 nM in assay [5] and 2.14 nM in assay [9]. Further, the percent of T cells stained in assay [2] is over 70%. The EC50 is 0.26 µg/mL in assay [3], 0.0033 µg/mL in assay [4] and 0.378 µg/mL in [8]. Besides, the % of positive T-cells is 89.3% in assay [6] and 80% in assay [7].
